Experimental data published in paper PMC10321058.

Biological target: SARS-CoV-2 spike RBD protein (SARS-CoV-2, UniProt P0DTC2 319-541)
Assay: electrochemical aptasensor

B1: thiolated SARS-CoV-2 RBD aptamer (Song et al. 2020) (ssDNA)
DNA: TTTTTCCAGCCACCGACCTTGTGCTTTGGGAGTGCTGGTCCAAGGGCGTTAAGGACA
modifications: 5'-thiol, TCEP reduced, immobilized on SPCE/HA-LSCF
B1: binds.
